T1: Staphylococcus aureus GatA (subunit A of the heterotrimeric tRNA-dependent amidotransferase GatCAB) (Staphylococcus aureus, UniProt P63488 1-485)
T1 sequence: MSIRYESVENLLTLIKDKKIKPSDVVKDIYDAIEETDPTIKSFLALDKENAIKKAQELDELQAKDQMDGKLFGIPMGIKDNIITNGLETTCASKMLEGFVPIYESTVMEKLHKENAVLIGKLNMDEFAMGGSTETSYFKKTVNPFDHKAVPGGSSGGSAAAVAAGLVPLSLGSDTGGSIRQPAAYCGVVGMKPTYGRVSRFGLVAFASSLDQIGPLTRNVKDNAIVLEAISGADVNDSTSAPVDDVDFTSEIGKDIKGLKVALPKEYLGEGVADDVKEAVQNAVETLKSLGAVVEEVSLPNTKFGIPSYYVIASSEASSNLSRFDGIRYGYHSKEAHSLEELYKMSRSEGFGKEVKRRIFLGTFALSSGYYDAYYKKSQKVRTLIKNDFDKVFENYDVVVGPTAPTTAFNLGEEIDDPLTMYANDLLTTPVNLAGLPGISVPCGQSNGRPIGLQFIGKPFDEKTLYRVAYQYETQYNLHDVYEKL

B1: Staphylococcus aureus GatC (subunit C of the heterotrimeric tRNA-dependent amidotransferase GatCAB) (natural protein)
chain: MTKVTREEVEHIANLARLQISPEETEEMANTLESILDFAKQNDSADTEGVEPTYHVLDLQNVLREDKAIKGIPQELALKNAKETEDGQFKVPTIMNEEDA
B2: Staphylococcus aureus GatB (subunit B of the heterotrimeric tRNA-dependent amidotransferase GatCAB) (enzyme)
chain: MHFETVIGLEVHVELKTDSKMFSPSPAHFGAEPNSNTNVIDLAYPGVLPVVNKRAVDWAMRAAMALNMEIATESKFDRKNYFYPDNPKAYQISQFDQPIGENGYIDIEVDGETKRIGITRLHMEEDAGKSTHKGEYSLVDLNRQGTPLIEIVSEPDIRSPKEAYAYLEKLRSIIQYTGVSDVKMEEGSLRCDANISLRPYGQEKFGTKAELKNLNSFNYVRKGLEYEEKRQEEELLNGGEIGQETRRFDESTGKTILMRVKEGSDDYRYFPEPDIVPLYIDDAWKERVRQTIPELPDERKAKYVNELGLPAYDAHVLTLTKEMSDFFESTIEHGADVKLTSNWLMGGVNEYLNKNQVELLDTKLTPENLAGMIKLIEDGTMSSKIAKKVFPELAAKGGNAKQIMEDNGLVQISDEATLLKFVNEALDNNEQSVEDYKNGKGKAMGFLVGQIMKASKGQANPQLVNQLLKQELDKR

Experiments:
[1] = target: T1, Staphylococcus aureus GatA (subunit A …); test: crystal structure
[2] = target: B2; test: crystal structure

B1: binds [1]; binds [2].

B2: binds [1].
